Common to all, as to format: biochemical
Assay [1] deals with protein kinase C. Description: Proteolytic susceptibility of optical probe after protein kinase C phosphorylation. To be noted: chymotrypsin. The text has this:
To measure protein kinase C activity using the optical probes of the present invention, a peptide ([…], SEQ. ID. NO: 12) was designed in which phosphorylation by protein kinase C occurred at the P′1 position (underlined in SEQ. ID. NO: 12) with respect to the scissile bond cleaved by chymotrypsin. This enabled an optimal protein kinase C recognition motif to placed within the optical probe sequence, and to create a site of phosphorylation that modulated the proteolytic sensitivity of the substrate towards chymotrypsin.

Assay [2] deals with chymotrypsin (Bos taurus, UniProt P00766). Put plainly: Chymotrypsin cleavage of optical probe with or without protein kinase A phosphorylation. To be noted: for 460/530 emission ratio, Non-phosphorylated Optical probe / 460/530 emission ratio, Phosphorylated Optical probe: 0.8 nM chymotrypsin. The protocol:
ID. NO: 12, below, (the P′1, position with respect to the protease cleavage site of chymotrypsin).
The peptide ([…], SEQ. ID. NO: 12) was labeled with fluorescein isothiocyanate at the N-termninus and 7-hydroxycoumarin-3-carboxamide at the C-terminus as described above. To determine the relative proteolytic activity of the phosphorylated and non-phosphorylated optical probes, samples of both were prepared. […] Mock kinase reactions with no ATP were used to create non-phosphorylated, control samples. In both cases, the samples were diluted 10 fold with buffer containing 50 mM HEPES, pH 7.5, 10 mM CaCl2 and 0.01% Brij-35, and incubated with 0.8 nM chymotrypsin.

Assay [3] concerns the target T1, caspase-3 (Homo sapiens, UniProt P42574).
T1 construct: purchased Upstate Biotechnology
T1 sequence (P42574 29-175 limits assumed): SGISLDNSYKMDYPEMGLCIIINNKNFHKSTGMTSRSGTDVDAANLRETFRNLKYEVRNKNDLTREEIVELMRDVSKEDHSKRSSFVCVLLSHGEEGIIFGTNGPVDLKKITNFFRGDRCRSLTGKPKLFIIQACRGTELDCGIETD
T1 sequence (P42574 176-277 limits assumed): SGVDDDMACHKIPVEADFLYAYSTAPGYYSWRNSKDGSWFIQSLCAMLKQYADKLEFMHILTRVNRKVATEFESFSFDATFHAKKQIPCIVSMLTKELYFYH
Put plainly: Caspase-3 cleavage of optical probe with or without ERK2 phosphorylation. To be noted: 30 minutes exposure to caspase-3. Here is the method:
To determine how phosphorylation on serine in the optical probe (SEQ. ID. NO: 24) effected the rate of caspase-3 cleavage, samples of phosphorylated and control (non-phosphorylated) optical probes were treated with the protease caspase-3. Phosphorylated samples of the optical probe (70 pmol) were prepared by 8 hour to overnight incubation with ERK2 kinase (Biomol). Reactions were typically performed in 10 μl using 200-500 μM ATP and 50-200 ng ERK2 in a buffer consisting of 50 mM HEPES, pH 7.5, 10 mM MgCl2, 1 mM EGTA, and 1 mM DTT at 30° C. Mock kinase reactions were performed for preparation of control (non-phosphorylated) optical probe as above, except ATP was omitted. To monitor cleavage of the optical probes by caspase-3, 10 μL volumes of phosphorylated and control (non-phosphorylated) samples of the optical probe were placed in individual wells of a 96-well multiwell plate. Caspase-3 cleavage reactions were carried out in these samples after dilution to 100 μL in a buffer consisting of 100 mM HEPES, pH 7.5, 5 mM DTT, 0.5 mM EDTA, 20% glycerol, 0.01% Brij-35, and 50-100 ng caspase-3 (Upstate Biotechnology), and incubated at room temperature. Emission readings were taken at 5 minute intervals during the course of the caspase-3 incubation using a Cytofluor plate reader as described in Example 1.

Data on two sequences can be found in patent US6410255B1, “Optical probes and assays” (priority 1999, dated 2002).

Where no end group is shown, it is not given here. The star is where a group is joined. FITC = O=C1OC2(c3ccc(O)cc3Oc3cc(O)ccc32)c2ccc(NC(=S)*)cc21

Take “RRRKFSLRRKA ({FITC}-RRRKFSLRRKA; not fully specified (residue 6, C-terminus)) [SEQ. ID. NO: 12, peptide labeled with fluorescein isothiocyanate at N-terminus and 7-hydroxycoumarin-3-carboxamide at C-terminus; protein kinase A and C probe]”: the “effect of phosphorylation by protein kinase C on proteolytic susceptibility of the substrate” value in assay [1] is “significantly modulated”. Moreover, the “460/530 emission ratio, Non-phosphorylated Optical probe” value in assay [2] (time of cleavage 0 minutes) amounted to 0.34; in assay [2] (time of cleavage 10 minutes), 3.15; in assay [2] (time of cleavage 20 minutes), 6.71; in assay [2] (time of cleavage 50 minutes), 13.34. Further, the “460/530 emission ratio, Phosphorylated Optical probe” value in assay [2] (time of cleavage 0 minutes) is 0.33; in assay [2] (time of cleavage 10 minutes) it was 0.54; in assay [2] (time of cleavage 20 minutes), 0.78; in assay [2] (time of cleavage 30 minutes), 1.02; in assay [2] (time of cleavage 40 minutes), 1.27; in assay [2] (time of cleavage 50 minutes), 1.53. Besides, the “460/530 emission ratio, Phosphorylated Optical probe” value in assay [2] (time of cleavage 60 minutes) was 1.78. Further, the “Fold difference in ratios” value in assay [2] (time of cleavage 0 minutes) is given as 1.0; in assay [2] (time of cleavage 10 minutes), 5.8; in assay [2] (time of cleavage 20 minutes), 8.6; in assay [2] (time of cleavage 30 minutes) it was 9.7; in assay [2] (time of cleavage 40 minutes), 9.5; in assay [2] (time of cleavage 50 minutes), 8.7. Moreover, the “Fold difference in ratios” value in assay [2] (time of cleavage 60 minutes) is given as 7.9.
For the sequence “RVDEPFSPGEK (Optical probe with p-Ser in P′(sub 1)) [SEQ. ID. NO: 24, ERK kinase specific optical probe cleaved by caspase-3]”, the “maximal difference in emission ratio of phosphorylated and non-phosphorylated optical probes” value in assay [3] is reported as “over a three fold difference”.
